The text below walks through data of patent publication US11826404B2, “Plasminogen treatment of conditions associated with PAI-1 overexpression” (PROMETIC BIOTHERAPEUTICS, INC., priority 2017, dated 2023).

For assay [1], the system named is collagen in the inflammatory lesions of the lungs. Nature of the assay: Collagen quantification in inflammatory lesions of the lungs, bleomycin model, plasminogen combined with pirfenidone (Example 3). It is filed as in vivo, mouse. The note with it: bleomycin-induced mice, day 28, FIG. 8. As to the method:
(§1) Male C57BL6 mice are administered intratracheal instillation of bleomycin sulphate (0.007 mg/mouse) at day 0. Human plasminogen was administered subcutaneously at day 10 and day 14, at a dose of either 6 mg/kg, 20 mg/kg, or 60 mg/kg. Animals were sacrificed at day 21. Collagen was quantified by histologic analysis using the staining Red sirus staining (Fluorescence) and analysed at a magnification of 400×. Collagen quantification was performed by segmentation with Image Pro Premier software, and using a sample of 20 fields located in the inflammatory lesions of the lungs. The quantity of collagen has been reported for the total surface of the regions containing inflammatory lesions. This method of quantification allows exclusion of the endogenous content of collagen that is normally contained in the tissue. […] CTGF, IL-6 and PAI-1 mRNA expressions were quantified by real-time PCR using mouse Taqman® Gene-Expression assay normalized to HPRT1 endogenous control (Student's t-test).
(§2) Pulmonary fibrosis in mice is induced by intratracheal instillation of the anticancer drug bleomycin into the mouse. […] Collagen was quantified by histologic analysis using the staining Red sirus staining (Fluorescence) and analysed as described in Example 2. IL-6 mRNA expression was quantified by real-time PCR using mouse Taqman® Gene-Expression assay normalized to HPRT1 endogenous control (Student's t-test).

Assay [2] has as its system IL-6 mRNA. Description: IL-6 mRNA expression by real-time PCR, bleomycin model, plasminogen combined with pirfenidone (Example 3). It is filed as in vivo, mouse. As to the method:
as §1, §2
(In general: In qPCR the cycle at which signal appears reflects the starting amount.)

In assay [3] the test system is collagen in the inflammatory lesions of the lungs. Nature of the assay: Collagen quantification in inflammatory lesions of the lungs, bleomycin-induced pulmonary fibrosis mouse model (Example 2). The class given is in vivo. The conditions noted are these: human plasminogen 60 mg/kg subcutaneously at day 10 and day 14; bleomycin-induced mice; measured at day 21; FIG. 4. An excerpt:
(§3) Pulmonary fibrosis in mice is induced by intratracheal instillation of bleomycin into the mouse. Bleomycin is well-known anticancer drug. First, the bleomycin insult results in an acute inflammation as soon as day 1. Later at about day 10 to day 14, fibrotic events arise and create a chronic fibrotic condition. The bleomycin-induced mice is recognized as an animal model for pulmonary fibrosis. The evaluation of the activity of plasminogen is undertaken by treatment of the mice with plasminogen at appropriate time points. In the present study, plasminogen was administered at day 10 and day 14.
(§4) Male C57BL6 mice are administered intratracheal instillation of bleomycin sulphate (0.007 mg/mouse) at day 0. Human plasminogen was administered subcutaneously at day 10 and day 14, at a dose of either 6 mg/kg, 20 mg/kg, or 60 mg/kg. […] Collagen was quantified by histologic analysis using the staining Red sirus staining (Fluorescence) and analysed at a magnification of 400×. Collagen quantification was performed by segmentation with Image Pro Premier software, and using a sample of 20 fields located in the inflammatory lesions of the lungs. The quantity of collagen has been reported for the total surface of the regions containing inflammatory lesions. This method of quantification allows exclusion of the endogenous content of collagen that is normally contained in the tissue. […]

In the next assay the test system is CTGF mRNA. Nature of the assay: CTGF mRNA expression by real-time PCR, bleomycin-induced pulmonary fibrosis mouse model (Example 2). It is filed as in vivo. The conditions noted are these: human plasminogen 6, 20 or 60 mg/kg subcutaneously at day 10 and day 14; bleomycin-induced mice; day 21; not dose-dependent; FIG. 5.
Excerpt: as §3, §4

Assay [4] deals with IL-6 mRNA. Nature of the assay: IL-6 mRNA expression by real-time PCR, bleomycin-induced pulmonary fibrosis mouse model (Example 2). The conditions noted are these: human plasminogen 6, 20 or 60 mg/kg subcutaneously at day 10 and day 14; bleomycin-induced mice; day 21; not dose-dependent; FIG. 6. It is filed as in vivo.
Excerpt: as §3, §4

In the next assay the test system is PAI-1 mRNA. Nature of the assay: PAI-1 mRNA expression by real-time PCR, bleomycin-induced pulmonary fibrosis mouse model (Example 2). It is filed as in vivo. The conditions noted are these: human plasminogen at all doses (6, 20, 60 mg/kg) subcutaneously at day 10 and day 14; bleomycin-induced mice; day 21; FIG. 7.
Excerpt: as §3, §4

Take `Cc1ccc(=O)n(-c2ccccc2)c1` [pirfenidone, reference compound]: in assay [1] (pirfenidone alone, 400 mg/kg oral once a day from day 7 to day 27), the “fibrosis (collagen expression in the inflammatory lesions of the lungs)” value was “efficient to reduce fibrosis”. For the same molecule, in the assay on IL-6 mRNA [2] (pirfenidone alone, 400 mg/kg oral once a day from day 7 to day 27, day 28, FIG. 9), the “IL-6 expression versus non-treated bleomycin-induced mice” value is “not significantly different”.

B1: plasminogen: Glu-plasminogen purified from pooled human plasma, purity above 95%; used in Example 2 (protein, UniProt P00747 20-810, looked up)
Plasminogen: EPLDDYVNTQGASLFSVTKKQLGAGSIEECAAKCEEDEEFTCRAFQYHSKEQQCVIMAENRKSSIIIRMRDVVLFEKKVYLSECKTGNGKNYRGTMSKTKNGITCQKWSSTSPHRPRFSPATHPSEGLEENYCRNPDNDPQGPWCYTTDPEKRYDYCDILECEEECMHCSGENYDGKISKTMSGLECQAWDSQSPHAHGYIPSKFPNKNLKKNYCRNPDRELRPWCFTTDPNKRWELCDIPRCTTPPPSSGPTYQCLKGTGENYRGNVAVTVSGHTCQHWSAQTPHTHNRTPENFPCKNLDENYCRNPDGKRAPWCHTTNSQVRWEYCKIPSCDSSPVSTEQLAPTAPPELTPVVQDCYHGDGQSYRGTSSTTTTGKKCQSWSSMTPHRHQKTPENYPNAGLTMNYCRNPDADKGPWCFTTDPSVRWEYCNLKKCSGTEASVVAPPPVVLLPDVETPSEEDCMFGNGKGYRGKRATTVTGTPCQDWAAQEPHRHSIFTPETNPRAGLEKNYCRNPDGDVGGPWCYTTNPRKLYDYCDVPQCAAPSFDCGKPQVEPKKCPGRVVGGCVAHPHSWPWQVSLRTRFGMHFCGGTLISPEWVLTAAHCLEKSPRPSSYKVILGAHQEVNLEPHVQEIEVSRLFLEPTRKDIALLKLSSPAVITDKVIPACLPSPNYVVADRTECFITGWGETQGTFGAGLLKEAQLPVIENKVCNRYEFLNGRVQSTELCAGHLAGGTDSCQGDSGGPLVCFEKDKYILQGVTSWGLGCARPNKPGVYVRVSRFVTWIEGVMRNN
Take B1: in assay [3], the “collagen expression in the inflammatory lesions” value is on record as “significantly reduced”. The “mRNA expression of CTGF” value in the assay with CTGF mRNA is listed as “significantly reduced”. The “IL-6 mRNA expression” value in the assay on IL-6 mRNA [4] is “significantly reduced”; in the assay on IL-6 mRNA [2] (murine plasminogen alone, 6 mg/kg subcutaneously at days 7, 10, 13, 16, 19 and 23, bleomycin-induced mice, day 28, FIG. 9), “inhibits IL-6 mRNA expression”. Moreover, the “PAI-1 mRNA expression (overexpression of PAI-1 in lungs)” value with PAI-1 mRNA is listed as “reduced”. Further, the “fibrosis (collagen expression in the inflammatory lesions of the lungs)” value in assay [1] (murine plasminogen alone, 6 mg/kg subcutaneously at days 7, 10, 13, 16, 19 and 23) is given as “efficient to reduce fibrosis”.
